The values below come from publication PMC6721692.

The target of assay [1] is endogenous TrkB of cultured rat hippocampal neurons (rat (endogenous in hippocampal neurons)) (UniProt Q63604). Kind of assay: non-reducing SDS-PAGE and Western blot; lysates of rat hippocampal neurons (vehicle or BDNF 1.0 nM) with SDS, without β-ME; blots with 80E3 and MM12.
For assay [2] the target is unchanged. Kind of assay: native gel or EMSA; native PAGE (no SDS, no β-ME) of lysates of rat hippocampal neurons treated with vehicle or BDNF (1.0 nM, 15 min); Western blot with anti-TrkB antibodies (80E3, MM12).

Sequence of endogenous TrkB of cultured rat hippocampal neurons, Q63604 32-821 (receptor; other documents disagree on this pair) (Q63604 32-821): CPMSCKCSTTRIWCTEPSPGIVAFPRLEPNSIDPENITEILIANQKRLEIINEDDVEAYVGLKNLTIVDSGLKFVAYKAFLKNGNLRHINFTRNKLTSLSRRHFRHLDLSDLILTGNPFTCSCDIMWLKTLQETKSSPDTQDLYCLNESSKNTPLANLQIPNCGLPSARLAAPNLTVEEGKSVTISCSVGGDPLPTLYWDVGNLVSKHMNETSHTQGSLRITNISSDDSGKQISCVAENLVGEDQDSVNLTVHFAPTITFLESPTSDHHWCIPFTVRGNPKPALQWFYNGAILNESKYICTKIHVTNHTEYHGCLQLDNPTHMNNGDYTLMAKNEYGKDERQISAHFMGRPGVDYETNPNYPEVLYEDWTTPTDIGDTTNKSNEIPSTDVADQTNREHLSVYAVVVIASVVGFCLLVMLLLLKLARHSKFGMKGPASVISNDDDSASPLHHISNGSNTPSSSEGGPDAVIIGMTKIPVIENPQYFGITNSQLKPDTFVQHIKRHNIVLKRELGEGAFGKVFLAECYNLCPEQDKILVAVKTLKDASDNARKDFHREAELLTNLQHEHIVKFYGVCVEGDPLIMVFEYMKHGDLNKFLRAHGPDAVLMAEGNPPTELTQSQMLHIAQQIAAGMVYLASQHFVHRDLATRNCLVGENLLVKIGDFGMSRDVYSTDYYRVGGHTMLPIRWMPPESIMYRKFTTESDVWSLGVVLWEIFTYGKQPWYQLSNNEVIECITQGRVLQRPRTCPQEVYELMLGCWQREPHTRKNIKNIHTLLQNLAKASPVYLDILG

On to “endogenous TrkB of cultured rat hippocampal neurons, Q63604 32-821 (receptor; other documents disagree on this pair)”, for which the stoichiometry N in assay [1] and in assay [2] was 2 each time.
